Measurements as given in US11266616B2, “Compositions and methods for inhibiting kinase activity” (BRANDEIS UNIVERSITY, priority 2016, dated 2022).
“Also recorded” adds a separate entry of the source.

How the values were obtained:
[1] = system: dephosphorylated Aurora A kinase-TPX2 chimera; assay: ITC binding to dephosphorylated Aurora A kinase-TPX2 chimera; design: species or system human; settings: PIF pocket occupied by TPX2; relative to Aurora A kinase alone
Experimental: (§1) Titrations were carried out using Nano ITC isothermal titration calorimeter (TA Instruments) and analyzed via the NanoAnalyze software using the independent fit model. Injectant was added in 1 μl volume, every 180 s, with a constant stirring speed at 350 rpm and at 25° C. Prior to ITC titration, both protein and TPX2 or monobody were dialyzed/resuspended in ITC buffer (20 mM TrisHCl, 200 mM NaCl, 3% (vol/vol) glycerol, 1 mM TCEP, pH 7.50).

[2] = target: T1, dephosphorylated Aurora A kinase (Homo sapiens, UniProt O14965); assay: Isothermal titration calorimetry (ITC) binding to dephosphorylated Aurora A kinase; settings: for binding affinity of monobody to dephosphorylated Aurora A kinase / binding affinity of sGFP-monobody fusion to Aurora A kinase compared with the monobody: ITC; for binding affinity of monobody to dephosphorylated Aurora A kinase: FIG. 8; for change of binding affinity of monobody to dephosphorylated Aurora A kinase: Aurora A pre-saturated with danusertib, FIGS. 11A-11B; for binding affinity of sGFP-monobody fusion to Aurora A kinase compared with the monobody: FIGS. 17B, 18D
T1 construct: Codon-optimized Aurora A^122-403 in pET28a and untagged λPP in T7-7 plasmid were co-transformed in BL21(DE3) cells; inferred from pET28a and the NiNTA column) (cleaved yes); made in house; host or cells: E. coli BL21(DE3), co-expressed with lambda protein phosphatase
T1 sequence (O14965 122-403): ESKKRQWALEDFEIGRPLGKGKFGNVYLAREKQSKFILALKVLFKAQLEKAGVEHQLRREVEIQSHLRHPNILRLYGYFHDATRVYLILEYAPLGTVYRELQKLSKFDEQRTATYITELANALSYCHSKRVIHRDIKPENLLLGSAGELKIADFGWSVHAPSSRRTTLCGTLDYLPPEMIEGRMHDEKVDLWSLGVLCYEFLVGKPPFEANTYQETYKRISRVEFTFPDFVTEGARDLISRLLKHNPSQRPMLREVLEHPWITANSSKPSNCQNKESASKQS
Experimental: as §1

Aurora A kinase = target: T2, Aurora A kinase (Homo sapiens, UniProt O14965); assay: In vitro kinase assay (HPLC-based / ATP/NADH-coupled) of peptide substrate phosphorylation; format: biochemical; settings: for effect of monobody on Aurora A kinase activity: Lats2 peptide substrate, FIG. 9
T2 construct: Codon-optimized Aurora A^122-403 in pET28a and untagged λPP in T7-7 plasmid were co-transformed in BL21(DE3) cells; inferred from pET28a and the NiNTA column) (cleaved yes); made in house; host or cells: E. coli BL21(DE3)
T2 sequence (O14965 122-403): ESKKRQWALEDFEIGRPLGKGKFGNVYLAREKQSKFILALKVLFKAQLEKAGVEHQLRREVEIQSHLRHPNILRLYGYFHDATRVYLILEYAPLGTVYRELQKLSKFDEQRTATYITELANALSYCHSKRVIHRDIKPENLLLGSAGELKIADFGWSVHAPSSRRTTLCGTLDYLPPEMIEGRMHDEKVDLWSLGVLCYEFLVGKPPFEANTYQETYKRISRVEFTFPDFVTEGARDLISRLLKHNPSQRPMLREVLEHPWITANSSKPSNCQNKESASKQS
Experimental: Aurora A, either phosphorylated/dephosphorylated wild type or mutant protein, was mixed with either AP ([…]) (SEQ ID NO: 5), Kemptide (LRRASLG) (SEQ ID NO: 6), or Lats2 ([…]) (SEQ ID NO: 7), in the absence or presence of 50 μM TPX2 in kinase buffer (20 mM TrisHCl, 200 mM NaCl, 3% [vol/vol] glycerol, 20 mM MgCl2, 1 mM TCEP, pH 7.50). These substrates comprise the consensus sequence for Aurora A ([R/K/N]—R—X—[S/T]-B where B is any hydrophobic residue with the exception of Pro) (Ferrari et al., 2005, Biochem. J., 390(Pt 1):293-302; Ohashi et al., 2006, Oncogene, 25:7691-7702; Sardon et al., 2010, EMBO Reports, 11:977-984). Peptides were ordered through Genscript. For HPLC-based activity assays the following protocol was used. The reaction was initiated with the addition of 5 mM ATP. Then 5 μl time points were collected, resuspended in 10 μl 6% (vol/vol) trichloroacetic acid (in water) to quench the reaction, and neutralized with 50 μl 100 mM KH2PO4, pH 8.0 to provide the appropriate pH for nucleotide separation. The mixture was then passed through a 0.22 μm SpinX column to remove any protein precipitation. Reverse phase-high performance liquid chromatography (RP-HPLC) and an ACE 5 C18-AR, 100 Å pore size column, were used to separate nucleotides as well as peptides. For nucleotide runs, 2 μl of the aforementioned mixture was sufficient for analysis, whereas for the peptide runs the optimal injection volume was 20 μl. Nucleotide runs were routinely performed to ensure no unproductive hydrolysis was occurring during the experiment. An isocratic elution run in 100 mM KH2PO4, pH 6.0 was performed for this purpose. For the peptide runs, a gradient of 0-30% of elution buffer lasting 10 min at 0.4 mL/min was sufficient to separate phosphorylated from non-phosphorylated species. The running buffer was 0.1% TFA (vol/vol) in water, while the elution buffer was 100% acetonitrile. Lastly, to ensure full saturation of Aurora A by TPX2 and test these proteins were well behaved, a dose-dependence curve of the effect of TPX2 on Aurora A was obtained.
For ATP/NADH-coupled assay-based reaction, the following protocol was used. Phosphorylation of different concentrations of Lats2 peptide was monitored using the ATP/NADH coupled assay in a 96-well plate format. Reactions were carried in the presence of 1 μM dephosphorylated or 0.05 μM phosphorylated Aurora and 5 mM ATP in assay buffer (20 mM TrisHCl, 200 mM NaCl, 20 mM MgCl2, 10% (v/v) glycerol, 1 mM TCEP, pH 7.50) at 25° C.

[3] = system: Aurora A kinase in HEK293 cells; assay: Immunofluorescence co-localization with Aurora A kinase in HEK293 cells; format: cell-based, human; settings: 7 hours after delivery, FIG. 17F
Text: (§2) FIGS. 17A-17F present a set of plots, images and graphs showing data gathered using cultured HEK293 cells. In FIGS. 17A-17F, alternative names of the monobodies described herein are used. […] The error bars represent the standard error for the estimate of Kd and are a measure of the goodness of fit of the data. […] As observed in FIG. 17D, sGFP-Mb60's optimal cell delivery occurs after 7 hrs of exposure. FIG. 17E presents a bar graph of luminescence (mean±SEM, n=4 measurements/dataset) as a measure of HEK293 viability after cells were treated for 7 hours under the conditions indicated below the x-axis. Asterisks indicate significance levels of between-conditions t-test comparisons of the different conditions with liposome-treated control; […]; **=p≤0.01; ***=p≤0.001. […] Cells were quadruple stained to visualize DNA/sGFP(−Mbs)/Aurora A kinase/TPX2. […] In the images, DNA stained blue; GFP stained green; Aurora A kinase stained red; and […].

HEK293 cells = assay: HEK293 viability (luminescence) after 7 hours of treatment; format: cell-based, human; settings: various monobody concentrations, FIG. 17E
Text: as §2

Question: Which results are given for `CO[C@@H](C(=O)N1Cc2[nH]nc(NC(=O)c3ccc(N4CCN(C)CC4)cc3)c2C1)c1ccccc1` [danusertib, reference compound]?
Answer: binding of danusertib to Aurora A kinase chimera weaker than binding to Aurora A kinase [1]: about 4 times; weakening of binding affinity of danusertib ([2]; Aurora A pre-saturated with activating monobody Mb54 (aka Mb1), FIG. 10C): 19 fold; tightening of binding affinity of danusertib ([2]; Aurora A pre-saturated with inhibiting monobody Mb60 (aka Mb2), FIG. 10C): 4.7 fold; binding of danusertib to Aurora A tighter in the presence of PS48 ([2]; saturating levels of PS48 vs none): about 2 times

B1: Mb6: monobody binding allosteric site of Aurora A kinase, SEQ ID NO: 10; activity neutral (protein, listed as Homo sapiens)
chain: GSVSSVPTKLEVVAATPTSLLISWDAFGHQYEPVYYYRITYGETGGNSPVQEFTVPGYYSTATISGLKPGVDYTITVYAWYVDGSYSSPISINYRT
Question: With B1 as the molecule, how does the “Activity of Monobody on Aurora A kinase” value (Aurora A kinase) read?
Answer: neutral

Question: What about the “effect of monobody on Aurora A kinase activity” value (“effect of monobody” below) (Aurora A kinase) of the same molecule?
Answer: weakest regulator; also recorded: did not significantly modulate; also recorded: neutral activity

Question: What about the “binding affinity of monobody to dephosphorylated Aurora A kinase” value [2] of the same molecule?
Answer: low nM affinity; also recorded: low nanomolar affinities

B2: Mb54: monobody binding allosteric site (PIF pocket) of Aurora A kinase, SEQ ID NO: 11; activator (protein, listed as Homo sapiens)
chain: GSVSSVPTKLEVVAATPTSLLISWDAQTYQMYDYVSYYRITYGETGGNSPVQEFTVPGYYSTATISGLKPGVDYTITVYAEGYYSSYSPISINYRT
Question: With B2 as the molecule, how does the “Activity of Monobody on Aurora A kinase” value (Aurora A kinase) read?
Answer: activator

Question: And the “effect of monobody” value (Aurora A kinase)?
Answer: strongest activator; also recorded: activate; also recorded: activation

Question: And the “change of binding affinity of monobody to dephosphorylated Aurora A kinase” value [2]?
Answer: weakened

Question: And the “binding affinity of monobody to dephosphorylated Aurora A kinase” value [2]?
Answer: low nanomolar affinities

B3: Mb60: monobody binding allosteric site of Aurora A kinase, SEQ ID NO: 4; inhibitor (protein, listed as Homo sapiens)
chain: GSVSSVPTKLEVVAATPTSLLISWDAPAVTVVHYVITYGETGGNSPVQEFTVPGSKSTATISGLKPGVDYTITVYAIDFYWGSYSPISINYRT
Question: What does the source list for B3?
Answer: Activity of Monobody on Aurora A kinase (Aurora A kinase): inhibitor; effect of monobody on Aurora A kinase activity (Aurora A kinase): inhibitor; also recorded: inhibited; also recorded: strong inhibition; change of binding affinity of monobody to dephosphorylated Aurora A kinase [2]: tightened; binding affinity of monobody to dephosphorylated Aurora A kinase [2]: low μM levels

B4: sGFP-Mb60: fusion polypeptide of supercharged GFP and inhibiting monobody Mb60 (aka Mb2) (protein)
chain: GSVSSVPTKLEVVAATPTSLLISWDAPAVTVVHYVITYGETGGNSPVQEFTVPGSKSTATISGLKPGVDYTITVYAIDFYWGSYSPISINYRT
modifications: left off: large carriers
Question: Which results are given for B4?
Answer: co-localization with Aurora A kinase [3]: strong co-localization; cell death / viability of HEK293 cells (HEK293 cells): statistically significant cell death; inhibition of Aurora A kinase activity by sGFP fusion compared with the monobody (Aurora A kinase; FIG. 17C): same extent as Mb60; binding affinity of sGFP-monobody fusion to Aurora A kinase compared with the monobody [2]: comparable; also recorded: closely mimicked the binding

B5: sGFP-Mb54: fusion polypeptide of supercharged GFP and activating monobody Mb54 (aka Mb1) (protein)
chain: GSVSSVPTKLEVVAATPTSLLISWDAQTYQMYDYVSYYRITYGETGGNSPVQEFTVPGYYSTATISGLKPGVDYTITVYAEGYYSSYSPISINYRT
modifications: left off: large carriers
Question: How did the “co-localization with Aurora A kinase” value [3] turn out when B5 was run?
Answer: strong co-localization

Question: And the “cell death / viability of HEK293 cells” value (HEK293 cells)?
Answer: did not cause cell death

Question: And the “binding affinity of sGFP-monobody fusion to Aurora A kinase compared with the monobody” value [2]?
Answer: closely mimicked the binding

B6: Mb56: monobody binding allosteric site of Aurora A kinase, SEQ ID NO: 3; inhibitor (protein, listed as Homo sapiens)
chain: GSVSSVPTKLEVVAATPTSLLISWDAMSDWYYWVDYYRITYGETGGNSPVQEFTVPGSYSTATISGLKPGVDYTITVYASDDVWGDYSPISINYRT
Question: Which “Activity of Monobody on Aurora A kinase” value (Aurora A kinase) does the source give for B6 here?
Answer: inhibitor

Question: And the “effect of monobody” value (Aurora A kinase)?
Answer: strongly inhibit

Question: And the “binding affinity of monobody to dephosphorylated Aurora A kinase” value [2]?
Answer: low nanomolar affinities

B7: Mb51: monobody binding allosteric site of Aurora A kinase, SEQ ID NO: 2; inhibitor (protein, listed as Homo sapiens)
chain: GSVSSVPTKLEVVAATPTSLLISWDAKPMSYEPVYYYRITYGETGGNSPVQEFTVPGYYSTATISGLKPGVDYTITVYADSMSSYYYSPISINYRT
Question: How did the “Activity of Monobody on Aurora A kinase” value (Aurora A kinase) turn out when B7 was run?
Answer: inhibitor

Question: What about the “effect of monobody” value (Aurora A kinase) of the same molecule?
Answer: strongly inhibit

Question: What about the “binding affinity of monobody to dephosphorylated Aurora A kinase” value [2] of the same molecule?
Answer: low nanomolar affinities

B8: Mb44: monobody binding allosteric site of Aurora A kinase, SEQ ID NO: 1; inhibitor (protein, listed as Homo sapiens)
chain: GSVSSVPTKLEVVAATPTSLLISWDAPAVTVDFYVITYGETGGYSYPWQEFEVPGSKSTATISGLKPGVDYTITVYADYGQYFYSPISINYRT
Question: For B8, which “Activity of Monobody on Aurora A kinase” value (Aurora A kinase) is on record?
Answer: inhibitor

Question: What about the “effect of monobody” value (Aurora A kinase) of the same molecule?
Answer: strongly inhibit

Question: And the “binding affinity of monobody to dephosphorylated Aurora A kinase” value [2]?
Answer: low μM levels

B9: sGFP-Mb6: fusion polypeptide of supercharged GFP and activity-neutral monobody Mb6 (protein)
chain: GSVSSVPTKLEVVAATPTSLLISWDAFGHQYEPVYYYRITYGETGGNSPVQEFTVPGYYSTATISGLKPGVDYTITVYAWYVDGSYSSPISINYRT
modifications: left off: large carriers
Question: B9 was tested. Which “co-localization with Aurora A kinase” value [3] did it give?
Answer: strong co-localization

Question: What about the “cell death / viability of HEK293 cells” value (HEK293 cells) of the same molecule?
Answer: statistically significant cell death
